Source: US20160152721A1 (Novartis, published 2016)
Where “and” joins values, the source holds several entries; their conditions need not be identical. Equal values may be shown once.

B1: Chir12.12 (antibody, human IgG1, kappa)
heavy: not shown
light: DIVMTQSPLSLTVTPGEPASISCRSSQSLLYSNGYNYLDWYLQKPGQSPQVLISLGSNRASGVPDRFSGSGSGTDFTLKISRVEAEDVGVYYCMQARQTPFTFGPGTKVDIRRTVAAPSVFIFPPSDEQLKSGTASVVCLLNNFYPREAKVQWKVDNALQSGNSQESVTEQDSKDSTYSLSSTLTLSKADYEKHKVYACEVTHQGLSSPVTKSFNRGEC
notes: also called Chir12.12 (wt Fc); parental anti-CD40 antibody
B2: mAb1 (antibody, human IgG1, kappa, N297A)
heavy: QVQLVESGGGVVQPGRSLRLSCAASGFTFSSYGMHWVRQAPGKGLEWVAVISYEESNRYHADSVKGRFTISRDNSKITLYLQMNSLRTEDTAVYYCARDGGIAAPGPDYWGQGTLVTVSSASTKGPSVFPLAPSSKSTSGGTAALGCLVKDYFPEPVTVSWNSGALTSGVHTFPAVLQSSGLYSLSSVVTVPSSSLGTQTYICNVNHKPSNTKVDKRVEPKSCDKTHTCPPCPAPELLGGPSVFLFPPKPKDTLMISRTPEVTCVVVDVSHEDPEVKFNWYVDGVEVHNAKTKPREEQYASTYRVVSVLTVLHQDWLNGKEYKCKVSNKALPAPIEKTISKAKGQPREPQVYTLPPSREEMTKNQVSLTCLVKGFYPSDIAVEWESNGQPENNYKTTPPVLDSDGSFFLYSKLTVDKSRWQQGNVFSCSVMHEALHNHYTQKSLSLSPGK
light: B1 light
notes: Fc-silent IgG1 variant of Chir12.12 with N297A (aglycosylated); same VH/VL as Chir12.12; also called mAb1 (N297A)
B3: mAb2 (antibody, human IgG1, kappa)
heavy: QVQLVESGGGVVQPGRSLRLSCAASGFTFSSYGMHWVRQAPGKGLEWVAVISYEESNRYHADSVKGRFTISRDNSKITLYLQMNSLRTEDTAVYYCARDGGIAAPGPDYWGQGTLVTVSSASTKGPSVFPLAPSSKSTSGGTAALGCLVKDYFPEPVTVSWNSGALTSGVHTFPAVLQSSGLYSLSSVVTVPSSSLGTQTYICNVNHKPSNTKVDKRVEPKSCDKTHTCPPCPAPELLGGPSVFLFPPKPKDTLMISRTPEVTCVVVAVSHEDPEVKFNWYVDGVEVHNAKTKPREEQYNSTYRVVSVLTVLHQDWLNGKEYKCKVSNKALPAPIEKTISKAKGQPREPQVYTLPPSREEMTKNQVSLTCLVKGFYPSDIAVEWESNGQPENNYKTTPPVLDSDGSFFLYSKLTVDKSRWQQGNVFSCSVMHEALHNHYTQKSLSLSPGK
light: B1 light
notes: Fc-silent IgG1 variant of Chir12.12 with D265A; same VH/VL as Chir12.12; also called mAb2 (D265A)
B4: mAb3 (antibody, human IgG1, kappa, L234A L235A)
heavy: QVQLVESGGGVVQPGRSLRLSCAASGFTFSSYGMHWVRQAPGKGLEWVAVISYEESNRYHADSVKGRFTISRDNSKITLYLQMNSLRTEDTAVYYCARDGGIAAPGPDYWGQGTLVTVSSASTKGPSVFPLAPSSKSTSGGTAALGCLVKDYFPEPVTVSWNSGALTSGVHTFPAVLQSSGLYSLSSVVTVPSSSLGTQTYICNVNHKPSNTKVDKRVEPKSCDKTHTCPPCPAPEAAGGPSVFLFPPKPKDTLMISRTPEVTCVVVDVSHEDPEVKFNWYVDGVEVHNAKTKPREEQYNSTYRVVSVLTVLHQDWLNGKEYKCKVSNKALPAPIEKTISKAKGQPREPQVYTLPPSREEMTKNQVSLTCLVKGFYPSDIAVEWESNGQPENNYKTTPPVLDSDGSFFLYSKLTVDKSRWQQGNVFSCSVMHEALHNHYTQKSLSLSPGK
light: B1 light
notes: IgG1 variant of Chir12.12 with L234A/L235A; same VH/VL as Chir12.12; also called mAb3 (LALA); LALA mutant

Tests used:
[1] = target: T1, human CD40 on cells (BJAB B cell line, human PBMCs, CD20+ B cells, tonsil B cells, monocyte-derived dendritic … (human, UniProt P25942 21-277)); assay: cell-based or functional assay
T1 sequence (P25942 21-277 limits assumed): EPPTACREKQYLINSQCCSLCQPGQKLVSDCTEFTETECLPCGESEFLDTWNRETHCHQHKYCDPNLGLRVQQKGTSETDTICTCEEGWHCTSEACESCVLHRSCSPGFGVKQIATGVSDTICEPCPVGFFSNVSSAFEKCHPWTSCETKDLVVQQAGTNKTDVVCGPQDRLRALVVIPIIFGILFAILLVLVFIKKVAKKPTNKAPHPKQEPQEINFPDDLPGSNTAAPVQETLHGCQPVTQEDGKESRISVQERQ

[2] = target: T1, human CD40 on cells (BJAB B cell line, …); assay: cell-based or functional assay; remark: listed apart in the source
[3] = target: T1, human CD40 on cells (BJAB B cell line, …); assay: cell-based or functional assay; remark: listed apart in the source
[4] = target: human CD40 (Biacore antigen) (human, UniProt P25942 21-193, limits assumed); assay: Biacore (SPR); format not described
human CD40 (Biacore antigen), sequence (P25942 21-193 limits assumed): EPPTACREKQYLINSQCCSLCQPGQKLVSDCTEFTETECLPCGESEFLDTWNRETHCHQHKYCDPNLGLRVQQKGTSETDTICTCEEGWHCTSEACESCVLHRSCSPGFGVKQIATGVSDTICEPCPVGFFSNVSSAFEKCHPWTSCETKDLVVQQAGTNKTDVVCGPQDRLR

[5] = target: T1, human CD40 on cells (BJAB B cell line, …); assay: flow cytometry on BJAB cells, normalized median fluorescence [left panel (Experiment 68_09]
Experimental: (§1) Flow cytometry was used, in order to compare the binding of the different anti-CD40 antibody Fc variants in their binding to human BJAB cells. Therefore, 2×10⁵ cells were seeded per well in a 96-well V-bottom plate. The plates were washed twice with 200 μL of FACS buffer (PBS, 5% FCS, 2 mM EDTA) for 2 min at 4° C. at 1350×g. Supernatants were discarded and cells were resuspended in […] FACS buffer containing 8% human serum (InVitromex, Cat. No. S4190) and incubated for 10 min. After two washes anti-human CD40 Fc variants were added in 50 μL FACS buffer with 1% human serum starting at a concentration of 10 μg/mL in a 1:2 dilution. Cells were incubated for 30 min on ice followed by two washing steps. 50 μL of polyclonal rabbit anti-human IgG FITC, F(ab′)2 (DAKO, Cat. No. F 0315) were added to each well and incubated for 30 min on ice. At the end of the incubation cells were washed twice, resuspended in 100 μL FACS buffer and acquired on a FACS Cantoll.
(§2) After acquisition the mean fluorescence intensity of the FITC channel was acquired in FloJo.Graphing and curve fitting was performed with GraphPad Prism 5.0. Due to changing intensities between individual experiments, values were normalized. Therefore, the highest value of each antibody test series was equaled 100%. Non-linear curve fittings were performed with the percent values.
(§3) To compare the curves of the different experiments, the highest median fluorescence intensity of each individual dose-titration was set to 100% binding and a non-linear curve fitting was applied. […] No changes in the binding capabilities of the variants could be observed with the different mutations of the Fc binding region of Chir12.12.

[6] = target: T1, human CD40 on cells (BJAB B cell line, …); assay: flow cytometry on BJAB cells, normalized median fluorescence [right panel (Experiment 72_09]
Experimental: as §1, §2, §3

[7] = target: T1, human CD40 on cells (BJAB B cell line, …); assay: cell-based or functional assay; remark: listed apart in the source
[8] = target: T2, Rhesus CD40 on CD20+ B cells / PBMCs (Rhesus, UniProt F6SNI1 21-278); assay: cell-based or functional assay
T2 sequence (F6SNI1 entry or part of it limits assumed): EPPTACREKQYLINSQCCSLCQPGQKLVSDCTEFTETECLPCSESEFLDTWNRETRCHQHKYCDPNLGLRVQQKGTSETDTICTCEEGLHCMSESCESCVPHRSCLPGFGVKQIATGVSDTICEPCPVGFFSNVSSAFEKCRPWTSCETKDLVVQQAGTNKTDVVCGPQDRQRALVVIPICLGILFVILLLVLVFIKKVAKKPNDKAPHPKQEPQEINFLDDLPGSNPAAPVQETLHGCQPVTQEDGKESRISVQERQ

[9] = target: T3, Cynomolgus CD40 on CD20+ B cells / PBMCs (Cynomolgus, UniProt G7PG38 21-278); assay: cell-based or functional assay
T3 sequence (G7PG38 entry or part of it limits assumed): as the sequence (F6SNI1 entry or part of it limits assumed) above, with R70Q, M92T, A207V, L220P counted along it

[10] = target: T1, human CD40 on cells (BJAB B cell line, …); assay: cell-based or functional assay; remark: listed apart in the source
[11] = target: T2, Rhesus CD40 on CD20+ B cells / PBMCs; assay: cell-based or functional assay; remark: listed apart in the source
[12] = target: T1, human CD40 on cells (BJAB B cell line, …); assay: flow cytometry on human CD20+ B cells
Experimental: (§4) PBMCs (rhesus, cynomolgus or human) or tonsil B cells (human only) were incubated at 4° C. for 30 min with purified labeled mAb1 or isotype control antibodies in dose response (final concentration range 2.5 μg/ml-0.00125 μg/ml). Cells were subsequently washed prior to being incubated with an anti-human (non-human primate cross-reactive) and a biotinylated anti-human IgG antibody with minimal cross-reactivity to NHPs (R10; note that it was possible to distinguish membrane IgG expressing human B cells either by including an anti-IgM stain or via differential intensity of FACS staining). Cells were again incubated at 4° C. for 30 min prior to being washed and subject to final staining with streptavidin-FITC for 20 min at 4° C. Cells were subsequently washed and evaluation of CD40 expression on CD20+ cells was performed by flow cytometry.

[13] = target: T3, Cynomolgus CD40 on CD20+ B cells / PBMCs; assay: flow cytometry on Cynomolgus CD20+ B cells
Experimental: as §4

[14] = target: T2, Rhesus CD40 on CD20+ B cells / PBMCs; assay: flow cytometry on Rhesus CD20+ B cells (n = 6)
Experimental: as §4

IC50 for inhibition of CD40L-mediated proliferation of PBMCs [1]	IC50 for the inhibition of TNF alpha release from human MoDCs stimulated with MegaCD40L, average [2]	IC50 for the inhibition of TNF alpha release from human MoDCs stimulated with MegaCD40L, experiment #2 [2]	IC50 for the inhibition of TNF alpha release from human MoDCs stimulated with MegaCD40L, experiment #3 [2]	Agonist activity on huPBMCs (EC50, ng/ml) [3]	CD40L inhibition - huPBMCs (IC50, ng/ml) [3]	Kd [4]	EC50 (read off the curve) [5]	EC50 (read off the curve) [6]	IC50 for the inhibition of TNF alpha release from human MoDCs stimulated with MegaCD40L, experiment #1 [2]	CD154 inhibition (IC50, µg/ml), CD154+IL-4 induced proliferation of human tonsil B cells [7]	CD154 inhibition (IC50, µg/ml), CD154+IL-4 induced proliferation of Rhesus PBMCs (n = 6) [8]	CD154 inhibition (IC50, µg/ml), CD154+IL-4 induced proliferation of Cynomolgus PBMCs [9]	IC50 in the functional inhibition test (soluble CD154 + IL4-induced proliferation, human tonsil B cells) [10]	IC50 in the functional inhibition test (soluble CD154 + IL4-induced proliferation, rhesus PBMCs) [11]	EC50 [12]	EC50 [13]	EC50 [14]	Binder
0.176 µg/mL	0.036 µg/mL	0.041 µg/mL	0.03 µg/mL	> 10000 ng/mL	13 ng/mL	550 pM	~0.1 µg/mL	~0.3 µg/mL										B1
0.058 µg/mL	0.04 µg/mL	0.044 µg/mL	0.058 µg/mL	> 10000 ng/mL	15 ng/mL	690 pM	~0.3 µg/mL	~0.5 µg/mL	0.023 µg/mL	0.058 µg/mL and 0.075 µg/mL	0.03 µg/mL	0.015 µg/mL and 0.02 µg/mL	0.067 µg/mL	0.0255 µg/mL	0.26 µg/mL and 0.28 µg/mL	0.3 µg/mL and 0.24 µg/mL	0.22 µg/mL	B2
0.146 µg/mL	0.033 µg/mL	0.012 µg/mL	0.042 µg/mL	> 10000 ng/mL	17 ng/mL	490 pM			0.041 µg/mL									B3
0.118 µg/mL	0.032 µg/mL	0.008 µg/mL	0.047 µg/mL	> 10000 ng/mL	15 ng/mL	330 pM	~0.1 µg/mL	~0.2 µg/mL	0.039 µg/mL									B4
